The text below walks through data of patent publication US20170137467A1 (CHROMOTEK, published 2017).

The target of assay [1] is T1, BC2T W10H peptide (BC2TW10X library) (human).
T1 construct: also called W10 permutant H
T1 peptide: Ac-PDRKAAVSHHQQ-NH2
The assay is described as follows: BC2TW10X library pulldown with immobilized Nb, LC-MS of the supernatant. On the procedure:
(§1) To investigate the binding specificity of the BC2T and derived mutants peptide libraries for each amino acid position of the sequence […] (SEQ ID NO:4) were synthesized with acetyl and amide groups located at the N-termini or C-termini respectively (Intavis). […] Incubations were performed in 300 μl PBS/0.01% CHAPS for 1 h on a HulaMixer (Life Technologies). Subsequent to a centrifugation step 10 μl supernatant were analyzed in a LC-MS procedure. Peptides were separated using an UltiMate3000 RSLCnano System (Thermo Scientific), composed of a C18 PepMap100μ-Precolumn (300 μm×5 mm; particle size: 5 μm; pore size: 100 Å—Thermo Scientific) and a C18 analytical column (Acclaim Rapid Separation LC (RSLC) Column: 150 mm×5 mm; particle size: 2.2 μm; pore size: 100 Å—Thermo Scientific). A step gradient was applied starting at 8% and ending after 20 min at 30% eluent B (80% acetonitrile, 20% H₂O, 0.1% formic acid). Peptides were analyzed using a FULL-MS-strategy detected by a Q Exactive Plus mass spectrometer (Thermo Scientific). As maximal injection time 100 ms was chosen while setting the AGC target to 3E6. The resolution was set to 70.000. Half-maximal signal areas were referenced to control precipitation approaches using a GFP-specific nanobody immobilized on agarose beads. All experiments were done in triplicates.

Assay [2] addresses T2, BC2T W10L peptide (BC2TW10X library) (human).
T2 construct: Isobaric with the isoleucine peptide; also called W10 permutant L
T2 peptide: Ac-PDRKAAVSHLQQ-NH2
The assay is described as above. Here is the method: as §1

Assay [3] addresses T3, BC2T W10R peptide (BC2TW10X library) (human).
T3 construct: also called W10 permutant R
T3 peptide: Ac-PDRKAAVSHRQQ-NH2
The assay is described as above. On the procedure: as §1

Assay [4] addresses T4, BC2T W10F peptide (BC2TW10X library) (human).
T4 construct: also called W10 permutant F
T4 peptide: Ac-PDRKAAVSHFQQ-NH2
The assay is described as above. Here is the method:
as §1

For assay [5], the target named is T5, BC2T W10I peptide (BC2TW10X library) (human).
T5 construct: Isobaric with the leucine peptide; also called W10 permutant I
T5 peptide: Ac-PDRKAAVSHIQQ-NH2
Described as above. On the procedure:
as §1

In assay [6] the target is T6, BC2T W10C peptide (BC2TW10X library) (human, also: Abu described as gamma-amino butyric acid).
T6 construct: also called W10 permutant C(Abu)
T6 peptide: Ac-PDRKAAVSH[GABA]QQ-NH2
Described as above. On the procedure:
as §1

Assay [7] deals with T7, BC2T W10T peptide (BC2TW10X library) (human).
T7 construct: also called W10 permutant T
T7 peptide: Ac-PDRKAAVSHTQQ-NH2
The assay is described as above. On the procedure: as §1

In assay [8] the target is T8, BC2T W10E peptide (BC2TW10X library) (human).
T8 construct: also called W10 permutant E
T8 peptide: Ac-PDRKAAVSHEQQ-NH2
Described as above. On the procedure:
as §1

The target in assay [9] is T9, BC2T W10G peptide (BC2TW10X library) (human).
T9 construct: also called W10 permutant G
T9 peptide: Ac-PDRKAAVSHGQQ-NH2
The description is as above. On the procedure: as §1

In assay [10] the target is T10, BC2T W10A peptide (BC2TW10X library) (human).
T10 construct: also called W10 permutant A
T10 peptide: Ac-PDRKAAVSHAQQ-NH2
The assay is described as above. Here is the method: as §1

The target in assay [11] is T11, BC2T W10Q peptide (BC2TW10X library) (human).
T11 construct: also called W10 permutant Q
T11 peptide: Ac-PDRKAAVSHQQQ-NH2
Described as above. On the procedure: as §1

Assay [12] addresses T12, BC2T W10N peptide (BC2TW10X library) (human).
T12 construct: also called W10 permutant N
T12 peptide: Ac-PDRKAAVSHNQQ-NH2
The description is as above. Here is the method: as §1

The target of assay [13] is T13, BC2T W10K peptide (BC2TW10X library) (human).
T13 construct: also called W10 permutant K
T13 peptide: Ac-PDRKAAVSHKQQ-NH2
Described as above. Here is the method:
as §1

The target of assay [14] is T14, BC2T W10S peptide (BC2TW10X library) (human).
T14 construct: also called W10 permutant S
T14 peptide: Ac-PDRKAAVSHSQQ-NH2
The description is as above. On the procedure: as §1

In assay [15] the target is T15, BC2T W10D peptide (BC2TW10X library) (human).
T15 construct: also called W10 permutant D
T15 peptide: Ac-PDRKAAVSHDQQ-NH2
Described as above. On the procedure:
as §1

Assay [16] has as its target T16, BC2T W10Y peptide (BC2TW10X library) (human).
T16 construct: also called W10 permutant Y
T16 peptide: Ac-PDRKAAVSHYQQ-NH2
The assay is described as above. On the procedure: as §1

Assay [17] has as its target T17, mCherry-Vimentin with C-terminal BC2 tag (mCherry-VIMBC2T) (human, UniProt P08670 1-466).
T17 construct: Expressed in HEK293T or HeLa cells; also called mCherry-VimentinBC2T; not shown: mCherry fluorescent protein
The assay is described as follows: immunoprecipitation from HEK293T lysate, immunoblot with anti-vimentin. On the procedure: HEK293T cells transiently expressing eGFP, eGFPBC2T or BC2TeGFP, eGFP-PCNA, eGFP-PCNABC2T, mCherry-Vimentin, mCherry-VimentinBC2T were washed and harvested in phosphate buffered saline (PBS), snap-frozen in liquid nitrogen and stored at −20° C. Cell pellets were homogenized in 200 μl lysis buffer (10 mM Tris/Cl pH 7.5, 150 mM NaCl, 0.5% NP40, 1 μg DNaseI, 2 mM MgCl₂, 2 mM PMSF, 1× protease inhibitor mix M (Serva) by repeated pipetting for 40 min on ice. After a centrifugation step (10 min at 18.000×g) the protein concentration of each lysate was determined using a Pierce BCA Protein Assay Kit (Thermo Fisher Scientific) according to manufacturer's protocol and the protein solutions were adjusted with dilution buffer (10 mM Tris/Cl pH 7.5, 150 mM NaCl, 2 mM PMSF) to a concentration of 1 mg/ml. 2% of the supernatant were added to SDS-containing sample buffer (referred to as input). […] After a centrifugation step (2 min, 2500×g) the precleared supernatant was transferred to a new cup. 2% were added to SDS-containing sample buffer (referred to as non-bound). […] Samples were analyzed by SDS-PAGE followed by immunoblotting. Immunoblots were probed with indicated antibodies.

Square brackets hold non-standard residues; d marks the D form. GABA = NCCCC(=O)O

T17 sequence (P08670 other isoform, or with tags, fused parts or gaps): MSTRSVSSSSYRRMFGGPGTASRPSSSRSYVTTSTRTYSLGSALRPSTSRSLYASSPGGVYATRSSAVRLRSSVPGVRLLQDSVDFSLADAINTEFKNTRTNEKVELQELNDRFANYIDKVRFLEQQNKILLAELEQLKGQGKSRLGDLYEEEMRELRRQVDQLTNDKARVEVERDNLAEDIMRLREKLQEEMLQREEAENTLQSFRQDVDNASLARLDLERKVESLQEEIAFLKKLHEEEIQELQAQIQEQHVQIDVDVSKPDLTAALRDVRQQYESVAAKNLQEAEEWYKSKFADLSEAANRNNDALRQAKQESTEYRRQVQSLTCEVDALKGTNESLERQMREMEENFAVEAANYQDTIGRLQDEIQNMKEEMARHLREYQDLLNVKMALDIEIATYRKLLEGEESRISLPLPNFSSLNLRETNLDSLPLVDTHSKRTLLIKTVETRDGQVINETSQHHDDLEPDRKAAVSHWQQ

B1: BC2 nanobody (VHH)
VHH: QVQLVESGGGLVQPGGSLTLSCTASGFTLDHYDIGWFRQAPGKEREGVSCINNSDDDTYYADSVKGRFTIFMDNAKDTVYLQMNSLKPEDTAIYYCAEARGCKRGRYEYDFWGQGTQVTVSS
notes: Alpaca VHH, 122 aa; also called BC2-Nb; BC2 nanotrap (BC2-Nb immobilized on agarose/Sepharose beads); not shown: C-terminal 6xHis-tag added by the pHEN6 vector
With B1, the binding result in [1], in [2], in [3], in [4], in [5] and in assay [6] was “no binding” in each case. Moreover, the binding result in assay [7], in assay [8], in assay [9], in [10], in [11] and in [12] was “no binding” throughout. Also, the binding result in assay [13] is “no binding”; in [14] it was “no binding”; in assay [15], “no binding”; in assay [16] it was “no binding”; in [17], “binds”.
